Experimental data from paper PMC8861016.

Target: LRP6mcherry2 (UniProt O75581)
Assay: FRET or BRET; FRET-based FLIM (EGFP donor lifetime) on live HEK293T cells stably expressing CD44EGFP and LRP6mcherry2, induced with Wnt3a CM 1 h before analysis

Sequence of UniProt O75581 (O75581 20-1613): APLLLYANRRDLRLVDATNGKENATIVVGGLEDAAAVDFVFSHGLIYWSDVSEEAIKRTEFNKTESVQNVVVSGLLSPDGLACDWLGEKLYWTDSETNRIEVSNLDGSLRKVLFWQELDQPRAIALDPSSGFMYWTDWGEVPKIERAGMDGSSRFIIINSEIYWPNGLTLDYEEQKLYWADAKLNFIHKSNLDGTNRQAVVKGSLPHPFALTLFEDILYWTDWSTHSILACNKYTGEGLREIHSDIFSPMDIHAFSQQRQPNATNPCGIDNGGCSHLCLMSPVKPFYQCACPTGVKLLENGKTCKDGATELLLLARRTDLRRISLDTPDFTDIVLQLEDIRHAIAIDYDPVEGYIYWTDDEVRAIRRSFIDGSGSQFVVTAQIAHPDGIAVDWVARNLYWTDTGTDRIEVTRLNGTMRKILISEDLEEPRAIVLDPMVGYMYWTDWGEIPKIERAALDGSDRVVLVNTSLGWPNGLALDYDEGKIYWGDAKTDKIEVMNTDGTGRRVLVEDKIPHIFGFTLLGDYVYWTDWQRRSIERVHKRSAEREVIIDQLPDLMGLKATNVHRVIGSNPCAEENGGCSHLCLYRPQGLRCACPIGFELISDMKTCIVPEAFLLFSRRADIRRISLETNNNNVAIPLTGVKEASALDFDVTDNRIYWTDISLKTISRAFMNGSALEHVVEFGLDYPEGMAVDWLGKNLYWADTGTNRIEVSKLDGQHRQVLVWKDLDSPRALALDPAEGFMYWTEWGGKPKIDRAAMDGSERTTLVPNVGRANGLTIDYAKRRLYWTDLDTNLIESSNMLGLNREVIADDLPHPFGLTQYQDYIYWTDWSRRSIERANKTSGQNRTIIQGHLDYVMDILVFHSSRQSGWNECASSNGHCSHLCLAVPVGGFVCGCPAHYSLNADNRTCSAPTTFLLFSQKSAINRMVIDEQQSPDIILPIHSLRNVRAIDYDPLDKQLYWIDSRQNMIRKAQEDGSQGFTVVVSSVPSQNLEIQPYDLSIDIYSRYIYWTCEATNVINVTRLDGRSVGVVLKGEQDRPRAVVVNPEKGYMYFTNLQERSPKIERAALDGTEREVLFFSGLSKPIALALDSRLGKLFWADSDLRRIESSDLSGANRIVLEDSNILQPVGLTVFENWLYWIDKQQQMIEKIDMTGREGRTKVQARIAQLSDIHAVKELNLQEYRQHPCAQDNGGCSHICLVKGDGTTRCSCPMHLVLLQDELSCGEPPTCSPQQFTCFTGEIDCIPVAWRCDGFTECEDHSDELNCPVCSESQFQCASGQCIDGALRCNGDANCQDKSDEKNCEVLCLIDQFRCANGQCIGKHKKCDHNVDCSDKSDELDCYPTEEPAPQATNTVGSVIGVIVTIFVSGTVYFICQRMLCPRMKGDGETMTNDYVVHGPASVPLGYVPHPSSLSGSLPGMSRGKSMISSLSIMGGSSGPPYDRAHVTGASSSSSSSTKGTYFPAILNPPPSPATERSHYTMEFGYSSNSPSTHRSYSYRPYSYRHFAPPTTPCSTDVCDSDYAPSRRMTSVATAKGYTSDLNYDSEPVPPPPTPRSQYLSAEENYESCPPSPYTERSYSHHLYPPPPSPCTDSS

EGFP donor fluorescence lifetime: 2450 ps
FRET efficiency: 7.5%
Substance: CD44EGFP (from UniProt P16070 21-742) (receptor)
